# According to the DeepSol protein solubility set:
# Experiment: soluble on expression in E. coli; label from the status in PepcDB or PDB records
row,Sequence,soluble on expression in E. coli
1,MGPLWLDVAGYELSAEDRAILAHPTVGGVILFGRNYHDNQQLLALNKAIRQAAARPILIGVDQEGGRVQRFREGFSRIPPAQYYARAENGVELAEQGGWLMAAELIAHDVDLSFAPVLDMGFACKAIGNRAFGEDVQTVLKHSSAFLRGMKAVGMATTGKHFPGHGAVIADSHLETPYDERETIAQDMAIFRAQIEAGVLDAMMPAHVVYPHYDAQPASGSSYWLKQVLREELGFKGIVFSDDLSMEGAAVMGGPVERSHQALVAGCDMILICNKREAAVEVLDNLPIMEVPQAEALLKKQQFSYSELKRLERWQQASANMQRLIEQFSEHHHHHHHHHH,soluble
2,MALHDENVVWHSHPVTVQQRELHHGHRGVVLWFTGLSGSGKSTVAGALEEALHKLGVSTYLLDGDNVRHGLCSDLGFSDADRKENIRRVGEVANLMVEAGLVVLTAFISPHRAERQMVRERVGEGRFIEVFVDTPLAICEARDPKGLYKKARAGELRNFTGIDSVYEAPESAEIHLNGEQLVTNLVQQLLDLLRQNDIIRS,soluble
3,LKLPDMRDVVGQPEARFAAEVAAAGGHHMLMIGPPGSGKSMIAERIPSLLPELSPQQMIEATAVHSVVGRTFSGPVSRAPFISPHHNVSKAALLGGGSGSPLPGAISLAHHGVLFLDEVSEIPASILDSLRTPLEYGSIRIIRSRHDVTFPAQFQLILAANPCRCG,not soluble
4,MSLQIQGQIVDIENKRIYSGEITIQNGKIISIIEKNHEVKNYILPGFIDAHIHIESSMLVPSEFAKIAVLHGTVATISDPHEIANVLGKKGVYYMIENGKQVPLKFHFGAPSCVPATAFETAGAIIDSEEIKELMASPDIYYLSEMMNYPGVLFDDDEVLKKIAWAKHFNKPIDGHAPGLRGEPIKKYISAGITTDHECFTYSEAQEKLSLGMKVIIREGSAAKNFEALIDLLPANYENMMFCSDDKHPDDLILGHINLLCARAVAKGIDVFKILQVACVNPVHHYKMKVGLLKKNDAADFIVVEDLVNFKVNKTYINGELVAENGQSFVENINFETPNNFNITKKKISDFEIPSLAEKIRVIEALEGQLITNEIHHNSFIKNGKLVSDIENDILKMAVVNRYQNTTPAIAFIKNFGLKKGAIASSVAHDCHNIVVVGTSDEEICNAVNLIIKNTGGICAVNGTQNKSLALPVAGIMSDKDAWETGKLYQEIDAMAKDLGSTLKAPFMTLSFMALLVIPDLKLSDKGLFSGNTFSFVDLNVEEGHHHHHH,soluble
5,MGSDKIHHHHHHFKLLAADGDSLLVGARNAVYNLSLSTLSVNHKIDWKPPAEHIEECIMKGKSKTDCQNYIRVLARKSAGVSLVCGTHAFSPKCREYTVTEFGIRNTRQFDGQGISPYDPKHNSSALYVPGTNQLFVATVTDFVGNDALIYRKTIDETPSSKSAANIRTQSYDARVLNAPNFVATFAYKEHVYFWFREIASEAIDNNEEPQIYARVARVCKNDKGGARPANERWTSYLKARLNCSLPSGSSPFYFNELKAVSDPIDAGNNNHVVYTVFSTPDSDVRMSAVCKFSMKKIREEFDNGTFKHQNNAQSMWMAFNRNEVPKPRPGSCSPDSTKLPENTVSFILHHPLLHRPIPSVAAPLLVEGADRADLTQITVLPRVRAVGGHNYDILFIGTSDGKVLKVVEVDGNATVIQSATVFQRGVPIVNLLTTKES,not soluble
6,EDLIFGKRISLDLGYREKALFYSLEEHVALIHPEDHDNFIHCWQLFISSANLKDNFSCTYRLKTSDGQWFWYKDLGKIVAVDANNHPVRVTGSYTNITESRANEERAQYYGDAFQQTQ,not soluble
7,MHHHHHHSSRQEPPKIHLDCPGRIPDTIVVVAGNKLRLDVPISGDPAPTVIWQKAITQGNKAPARPAPDAPEDTGDSDEWVFDKKLLCETEGRVRVETTKDRSIFTVEGAEKEDEGVYTVTVKNPVGEDQVNLTVKVID,soluble
8,MGSDKIHHHHHHMTKTDPAPMAPPPRGEEEEEEEEDEPVPEAPSPTQERRQKPVVHPSAPAPLPKDYAFTFFDPNDPACQEILFDPQTTIPELFAIVRQWVPQVQHKIDVIGNEILRRGCHVNDRDGLTDMTLLHYACKAGAHGVGDPAAAVRLSQQLLALGADVTLRSRWTNMNALHYAAYFDVPVLVRVLLKGARPRVVNSTCSDFNHGSALHIAASSLCLGAAKCLLEHGANPALRNRKGQVPAEVVPDPMDMSLDKAEAALVAKELRTLLEEAVPLSCALPKVTLPNYDNVPGNLMLSALGLRLGDRVLLDGQKTGTLRFCGTTEFASGQWVGVELDEPEGKNDGSVGGVRYFICPPKQGLFASVSKISKAVDAPPSSVTSTPRTPRMDFSRVTGKGRREHKGKKKTPSSPSLGSLQQRDGAKAEVGDQVLVAGQKQGIVRFYGKTDFAPGYWYGIELDQPTGKHDGSVFGVRYFTCPPRHGVFAPASRIQRIGGSTDSPGDSVGAKKVHQVTMTQPKRTFTTVRTPKDIASENSISRLLFCCWFPWMLRAEMQS,not soluble
9,MNRLHGQQVKIGYGDNTIINKLDVEIPDGKVTSIIGPNGCGKSTLLKALSRLLAVKEGEVFLDGENIHTQSTKEIAKKIAILPQSPEVADGLTVGELVSYGRFPHQKGFGRLTAEDKKEIDWAMEVTGTDTFRHRSINDLSGGQRQRVWIAMALAQRTDIIFLDEPTTYLDICHQLEILELVQKLNQEQGCTIVMVLHDINQAIRFSDHLIAMKEGDIIATGSTEDVLTQEILEKVFNIDVVLSKDPKTGKPLLVTYDLCRRAYS,not soluble
10,MSNDETVEKVTQQVSELKSTDVKEQVVTPWDVEGGVDEQGRAQNIDYDKLIKQFGTKPVNEETLKRFKQVTGREPHHFLRKGLFFSERDFTKILDLYEQGKPFFLYTGRGPSSDSMHLGHMIPFVFTKWLQEVFDVPLVIELTDDEKFLFKHKLTINDVKNFARENAKDIIAVGFDPKNTFIFSDLQYMGGAFYETVVRVSRQITGSTAKAVFGFNDSDCIGKFHFASIQIATAFPSSFPNVLGLPDKTPCLIPCAIDQDPYFRVCRDVADKLKYSKPALLHSRFFPALQGSTTKMSASDDTTAIFMTDTPKQIQKKINKYAFSGGQVSADLHRELGGNPDVDVAYQYLSFFKDDDVFLKECYDKYKSGELLSGEMKKLCIETLQEFVKAFQERRAQVDEETLDKFMVPHKLVWGEKERLVAPKPKTKQEKKHHHHHH,soluble
11,MAQFESGVKYVPYSQEQVFNKLSDLSNLESVRDKLADKVQGMEFDSDSLSFTVQGISITLRIIEREPYKCVKFESEKSPVPMNLWIQILPVEAGQAKLKVTIRAEVNMFMKAMVAKPLQDGVDKLAEMLSMIPYLEHHHHHH,soluble
12,AHHHHHHGSEKALILAEGRYKTTDGKTAHGLVRYSKRFEIVGVIDSTLAGRDAGEILDGIYRGIPIYGSLEEALAEHPDVKYLIIGVATPGGYLPPLYREIIKKAIKKRINIVNGLHNFLSDDPEFSRLAKRYKVQLIDVRKMYRDLKIPFTGKIKEVRAIKIAVLGTDAAIGKRTTAIMLHEAFERFGKKSVFVAMGQTGWMQGAKYCIVMDSIINDFVVGAIEDVIWRAWKEENPDVIVTHGEGSLLHPAYPGGFELIAAGRPDYIILQHAPARKFFDDFPQYEIPPLEKYIQLIELLSGKKPIAITINSEGLTKEEALQKAREIEETYGILTRVPLYEGVDDIVKAILEEVERIKVTVPQEGAVNASQVL,not soluble
13,DIINFFKQITDHEPYDYQIRAWEKINKIMELGGRVVIEIPTAGGKTEAAIIPYLYQFISNDWKVPRLIYVLPTRSLVEKQVERIRNYIKKILEIKGYSKDKVEELAKKIVQVEYGLEETHAFLGFVVLTTWDTFLYGLAAHRTVGDRFTFPCGAIAQSLVVFDEIQMYQDESLYMPRLIGLVVKRLVEANVPLVFMTATLPTELKKILGIHDEEPITVNPEDT,not soluble
14,MSLQNIRFGECINSPYVKPKRVFYTERGIEKSWDVVEAHDSVSVLLFDPKKRAFVLVKQFRPAVFLKGTSGYTYELCAGIVDKPGKSLEVIAQEEILEECGYSLSIDSLERITSFYTSVGFAGSRQTLFYAEVEDSLRQGEGGGVESENIEVVHLPLLEARAFMLDEERPKTPGLLFAFMWFFERHPKNEGHHHHHH,soluble
15,EQMEGMLCRKQEMEAFGKKAANRSWQNVYCVLRRGSLGFYKDAKAASAGVPYHGEVPVSLARAQGSVAFDYRKRKHVFKLGLQDGKEYLFQAKDEAEMSSWLRVVNAAIA,soluble
16,MLGDVERFFSKKALEMRASEVRELLKLVETSDIISLAGGLPNPKTFPKEIIRDILVEIMEKYADKALQYGTTKGFTPLRETLMKWLGKRYGISQDNDIMITSGSQQALDLIGRVFLNPGDIVVVEAPTYLAALQAFNFYEPQYIQIPLDDEGMKVEILEEKLKELKSQGKKVKVVYTVPTFQNPAGVTMNEDRRKYLLELASEYDFIVVEDDPYGELRYSGNPEKKIKALDNEGRVIYLGTFSKILAPGFRIGWMVGDPGIIRKMEIAKQSTDLCTNVFGQVVAWRYVDGGYLEKHIPEIRKFYKPRRDAMLEALEEFMPEGVKWTKPEGGMFIWVTLPDGIDSKKMLERAIKKGVAYVPGEAFYAHRDVKNTMRLNFTYVDEDKIMEGIKRLAETIKEELKA,soluble
17,MAHHHHHHMDYYRLLADIGHTYLQLIPSTAHVEKVTGLAARYCIFTITHTQMLLHCLMLWKEARLGDGGGFIDYAKVRNLKICSGAAEHTAQSNADAHSSNEGKQKWRTIDRTASLLFTLQLLEANCRYYCLVFLANYCALLLRSYSCLTDQRKVNRVHANVVEHLDMVSRLVLDLAEEYPNEYLSRLIMANLPKPSNFDRECLSSMGASSHMGSQKILSFGNDQHRHLYASGYPWSPTQSALIPLILARTVRLTVQENVSRHSQAQLRSPAERLSYHYTRWHFNSGLVIVPGCSLYMLKKSLPGFVPGKSTFAHYATMAEHEELHVPRAAADVHWQRGSAAVPVPEDGGGAAPGSHRNPRKSEDSADAEKREALTKKCEERLIKKRRHINTDLHLSDERTCVALCLEEACALALPSLLLSCVLQKATREPHFREFMNNAMNLVLGLYGPASSEWHMMASFLRKHLEG,not soluble
18,MKTFNAGRNADTEDELWVVEHPPVFTQGLAGKPEHLLIRDDIPVVQIDRGGQITYHGPGQLVVYTMIDFKRRKTSVRNIVSALENSIIATLAEYGIEAAADPKRPGVYVGERKIASLGLRIKNGSVYHGLALNVNMDLSPFTHINPCGYAGMEMTQIADFVQPCPTPDEVAAKLTAHLETQFTPKADNNE,not soluble
19,KDWSLDVTANISALRNKVKSLGEGVQPIKAEVMMSGSFNDRPTITKPGLPIGTFWGYVVEGFDNDGNFIFQDNNGSVNGVLTGKPDGKIDENDKTDIGNPHPDFTYGLNINVGYKNWDLTAFFQGTQGNDIFALMKYDWYFGGANSATLKDAFYNSWTPQNPNAEAPKLNSKNSSGINSLPSTFYVEDGSYFRCKNLQIGYSFNKKLLQKFHIESFRIYAGVQNLFTITKYPLYDPEVSSNVLFDRGVDGFWQAQESPHEATMNSRVYNLGVNLTF,not soluble
20,FNCNKREGPCSQRSLCECDPNLQLGRHSDQLWHYNLRTNRCERGGYRDNCNSHSSSGACVMACERIHHHHHH,soluble
21,MGSDKIHHHHHHMLSTANITMQFGAKPLFENVSVKFGEGNRYGLIGANGCGKSTFMKILGGDLEPTSGQVMKDATTRLGKLSQDQFAFESERVIDTVIMGNTELWEVAAERERIYSQTEMSEEDGMKVADLEVRYAELDGYTAEARAGELLLGLGIPLVQHTQPMSVVAPGWKLRVLLAQALFSDPDVLLLDEPTNHLDINTIRWLEEILRSRSSTMLIISHDRHFLNRVCTHMADLDYGELTLFPGNYDEYMTAATQARERLHADNAKKKAEIAELQQFVSRFSANASKAKQATSRQRKIDKIQLDEVKPSSRVSPFIRFEQTKKIHRHALNAEKLSKAWGDNVLFERFDLQVEAGERVAIIGPNGIGKTTLLNCLVGTMTPDAGEVKWTDAAEVGYFAQDHADDFEGGETLFEWMRQWTTEGEQTVRGALGRMLFSNDDIGKSVKVISGGEQGRMLFGKLALQKPNVLVMDEPTNHLDMESIEALNLALENYPGTLIFVSHDREFVGSLATRIIELKDDDIVDFSGSYDDYLRSQSIYD,not soluble
